PMC5856381, “Phenotype-specific recombinant haptoglobin polymers co-expressed with C1r-like protein as optimized hemoglobin-binding therapeutics” (BMC Biotechnology, 2018)

Target: T1, cleavage-site mutated recombinant haptoglobin Hp1S (Q101A, R102A), uncleaved proHp (human)
T1 chain: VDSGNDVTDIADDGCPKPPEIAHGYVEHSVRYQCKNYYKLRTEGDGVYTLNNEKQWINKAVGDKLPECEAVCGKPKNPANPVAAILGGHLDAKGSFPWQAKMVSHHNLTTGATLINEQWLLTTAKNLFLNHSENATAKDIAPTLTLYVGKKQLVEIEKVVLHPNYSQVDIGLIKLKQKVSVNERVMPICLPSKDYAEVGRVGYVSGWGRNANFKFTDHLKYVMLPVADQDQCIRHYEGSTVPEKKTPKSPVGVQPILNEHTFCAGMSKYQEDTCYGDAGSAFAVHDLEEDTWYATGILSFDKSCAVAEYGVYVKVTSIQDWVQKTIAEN
Assay: non-reducing SDS-PAGE; Coomassie-stained gel of non-reduced protein samples; disulfide-linked dimers and multimers

B1: cleavage-site mutated recombinant haptoglobin Hp1S (Q101A, R102A), uncleaved proHp (natural protein)
chain: T1 chain
modifications: Uncleaved single-chain proHp1S with signal peptide removed; paper's Q101/R102 (precursor Hp1 numbering) = Q160/R161 of P00738; disulfide-linked dimer; N-glycosylated; C-terminal 8xHis tag omitted / …
stoichiometry N: 2
